T1: soluble His-tagged human CD39 ECD protein (human, UniProt P49961 38-478)
T1 construct: also called human CD39 ECD His-tagged antigen; Sino Biological Cat. No. 16020-H08B
T1 sequence: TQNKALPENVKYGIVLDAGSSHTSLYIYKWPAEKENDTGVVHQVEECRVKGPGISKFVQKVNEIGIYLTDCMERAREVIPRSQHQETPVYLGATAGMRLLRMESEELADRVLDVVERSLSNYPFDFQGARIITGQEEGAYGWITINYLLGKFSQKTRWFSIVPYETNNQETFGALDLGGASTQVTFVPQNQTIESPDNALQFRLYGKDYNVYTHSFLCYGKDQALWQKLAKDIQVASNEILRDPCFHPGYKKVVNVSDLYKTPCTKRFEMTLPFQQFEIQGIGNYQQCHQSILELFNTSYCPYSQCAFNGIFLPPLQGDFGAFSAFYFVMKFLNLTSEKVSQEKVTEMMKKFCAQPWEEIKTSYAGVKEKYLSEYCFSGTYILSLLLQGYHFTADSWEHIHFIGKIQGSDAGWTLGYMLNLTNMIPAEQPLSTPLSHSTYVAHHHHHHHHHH

T2: human CD39 expressed on the cell surface (human, UniProt P49961 1-510)
T2 sequence: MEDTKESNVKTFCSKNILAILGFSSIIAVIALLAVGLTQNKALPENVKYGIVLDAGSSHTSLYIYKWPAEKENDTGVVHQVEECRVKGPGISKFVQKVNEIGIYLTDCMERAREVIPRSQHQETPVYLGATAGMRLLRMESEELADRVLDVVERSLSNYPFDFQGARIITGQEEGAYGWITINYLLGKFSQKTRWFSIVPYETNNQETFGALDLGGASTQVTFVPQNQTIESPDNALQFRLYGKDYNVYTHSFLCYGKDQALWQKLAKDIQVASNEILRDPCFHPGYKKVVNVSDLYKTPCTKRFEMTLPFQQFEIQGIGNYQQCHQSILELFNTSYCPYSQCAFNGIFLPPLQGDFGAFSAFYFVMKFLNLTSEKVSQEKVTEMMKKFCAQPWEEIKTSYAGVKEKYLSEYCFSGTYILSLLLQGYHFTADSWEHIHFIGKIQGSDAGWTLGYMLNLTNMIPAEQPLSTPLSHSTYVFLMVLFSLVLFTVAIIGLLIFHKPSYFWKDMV

T3: recombinant human CD39 (soluble) (human, UniProt P49961 38-478, limits assumed)
T3 sequence (looked up): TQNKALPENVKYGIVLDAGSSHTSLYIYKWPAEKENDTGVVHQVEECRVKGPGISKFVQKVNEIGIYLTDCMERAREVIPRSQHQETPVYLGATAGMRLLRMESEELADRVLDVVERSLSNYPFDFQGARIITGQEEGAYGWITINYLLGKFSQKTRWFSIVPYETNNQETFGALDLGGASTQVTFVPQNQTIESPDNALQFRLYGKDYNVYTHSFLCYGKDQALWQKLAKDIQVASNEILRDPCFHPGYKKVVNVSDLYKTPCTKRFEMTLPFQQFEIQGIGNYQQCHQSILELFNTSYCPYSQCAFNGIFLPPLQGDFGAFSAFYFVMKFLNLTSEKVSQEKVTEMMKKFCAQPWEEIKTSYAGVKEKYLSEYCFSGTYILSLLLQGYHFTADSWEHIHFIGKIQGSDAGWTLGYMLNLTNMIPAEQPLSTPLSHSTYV

T4: cynomolgus monkey CD39 expressed on HEK-293 cells (cynomolgus monkey, UniProt P49961 5-510 (human entry))
T4 construct: also called Cynomolgus Monkey CD39-HEK293
T4 chain: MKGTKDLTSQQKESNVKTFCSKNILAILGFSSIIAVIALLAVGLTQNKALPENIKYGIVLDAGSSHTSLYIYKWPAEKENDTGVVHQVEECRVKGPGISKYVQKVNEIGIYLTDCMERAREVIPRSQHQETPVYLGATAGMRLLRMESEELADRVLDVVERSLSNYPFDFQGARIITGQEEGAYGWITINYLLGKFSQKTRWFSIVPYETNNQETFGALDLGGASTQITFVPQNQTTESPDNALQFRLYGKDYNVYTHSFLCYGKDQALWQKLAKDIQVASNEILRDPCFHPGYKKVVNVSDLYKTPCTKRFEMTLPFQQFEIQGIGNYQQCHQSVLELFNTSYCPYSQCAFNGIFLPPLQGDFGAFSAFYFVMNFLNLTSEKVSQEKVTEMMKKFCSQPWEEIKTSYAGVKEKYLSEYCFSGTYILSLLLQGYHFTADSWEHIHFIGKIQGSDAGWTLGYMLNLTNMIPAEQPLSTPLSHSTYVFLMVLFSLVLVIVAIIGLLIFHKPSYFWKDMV


Key:
[1] = target: T1, soluble His-tagged human CD39 ECD …; assay: SPR, monovalent affinity mode; average over seven surface densities
[2] = target: T1, soluble His-tagged human CD39 ECD …; assay: SPR, bivalent avidity mode; average over six surface densities
[3] = target: T2, human CD39 expressed on the cell surface; assay: cell-based or functional assay
[4] = target: T2, human CD39 expressed on the cell surface; assay: flow cytometry on human PBMCs gated on CD19+ B cells, 0 uM ATP (N = 8)
[5] = target: T2, human CD39 expressed on the cell surface; assay: flow cytometry on human PBMCs gated on CD19+ B cells, one donor, 0 µM ATP
[6] = target: T2, human CD39 expressed on the cell surface; assay: flow cytometry on human PBMCs gated on CD19+ B cells, 400 uM ATP (N = 6)
[7] = target: T2, human CD39 expressed on the cell surface; assay: flow cytometry on human PBMCs gated on CD19+ B cells, one donor, 400 µM ATP
[8] = target: T2, human CD39 expressed on the cell surface; assay: cell-based or functional assay; remark: listed apart in the source
[9] = target: T3, recombinant human CD39 (soluble); assay: cell-based or functional assay
[10] = target: T2, human CD39 expressed on the cell surface; assay: cell-based or functional assay; remark: listed apart in the source
[11] = target: T2, human CD39 expressed on the cell surface; assay: competition flow cytometry on MOLP-8 cells, competitor hu39.1_IGG4.P-AF647
[12] = target: T1, soluble His-tagged human CD39 ECD …; assay: SPR, bivalent avidity mode (CD39 ECD immobilized, antibody analyte); Rmax 896.01 RU surface
[13] = target: T1, soluble His-tagged human CD39 ECD …; assay: SPR, bivalent avidity mode (CD39 ECD immobilized, antibody analyte); Rmax 420.45 RU surface
[14] = target: T2, human CD39 expressed on the cell surface; assay: flow cytometry on human PBMCs gated on CD14+ monocytes, 0 uM ATP (N = 8)
[15] = target: T1, soluble His-tagged human CD39 ECD …; assay: SPR, bivalent avidity mode; average over six surface densities; average of different density surfaces; CD39 ECD immobilized
[16] = target: T2, human CD39 expressed on the cell surface; assay: flow cytometry on human PBMCs gated on CD14+ monocytes, 400 uM ATP (N = 6)
[17] = target: T1, soluble His-tagged human CD39 ECD …; assay: SPR, bivalent avidity mode (CD39 ECD immobilized, antibody analyte); Rmax 524.16 RU surface
[18] = target: T2, human CD39 expressed on the cell surface; assay: FACS on CHO-K1 cells overexpressing human CD39
[19] = target: T4, cynomolgus monkey CD39 expressed on …; assay: FACS on HEK293 cells overexpressing cynomolgus CD39
[20] = target: T2, human CD39 expressed on the cell surface; assay: flow cytometry on purified human CD14+ monocytes, 400 uM ATP
[21] = target: T2, human CD39 expressed on the cell surface; assay: cell-based or functional assay; remark: listed apart in the source
[22] = target: T2, human CD39 expressed on the cell surface; assay: flow cytometry on purified human CD14+ monocytes, 0 uM ATP
[23] = target: T2, human CD39 expressed on the cell surface; assay: cell-based or functional assay; remark: listed apart in the source
[24] = target: T1, soluble His-tagged human CD39 ECD …; assay: SPR (Biacore 8K), antibody captured via anti-human Fc, CD39 ECD analyte

Binder | Kd [1] [nM] | IC50, CD39 enzymatic inhibition on human monocytes, 400 uM ATP [3] [nM] | Max Inhibition (%), human monocytes, 400 uM ATP [3] [%] | EC50 [4] [nM] | EC50 (read off the curve) [5] [nM] | EC50 [6] [nM] | EC50 (read off the curve) [7] [nM] | IC50, CD39 enzymatic inhibition on human monocytes, 20 uM ATP [8] [nM] | Max Inhibition (%), human monocytes, 20 uM ATP [8] [%] | IC50, inhibition of recombinant CD39 enzymatic activity, 20 uM ATP [9] [nM] | Max Inhibition (%), recombinant CD39, 20 uM ATP [9] [%] | IC50, CD39 enzymatic inhibition on THP-1 cells, 20 uM ATP [10] [nM] | Max Inhibition (%), THP-1 cells [10] [%] | other results
hu31.4_IGG1.AA (antibody, human IgG1, kappa, L234A L235A, humanized variant of antibody 31, human IgG1 L234A/L235A) heavy: not shown light: DIVLTQSPALAVSPGQRATITCRTQQTVDHYGTTYMNWYQQKPGQPPKLLIYLASSLASGVPARFSGSGSGTDFTLTINPVEADDTANYYCQQSRNLWTFGGGTKVEIKRTVAAPSVFIFPPSDEQLKSGTASVVCLLNNFYPREAKVQWKVDNALQSGNSQESVTEQDSKDSTYSLSSTLTLSKADYEKHKVYACEVTHQGLSSPVTKSFNRGEC | 0.19 | 0.7 | 63 | 1 | ~2 | 1 | ~2 | 1 | 69 | 0.3 | 86 | 0.53 | 62 | Kd [2]: 0.3 nM; Max Competition [11]: -22%; Kd [12]: 0.105 nM
hu39.5_IGG1.AA (antibody, human IgG1, kappa, L234A L235A, humanized variant of antibody 39, human IgG1 L234A/L235A) heavy: not shown light: DTVLTQSPASLAVSPGQRATITCRASEGVKSYMHWYQQKPGQPPKLLIYKASNLASGVPARFSGSGSGTDFTLTINPVEADDTANYYCQQSWNDPTFGQGTKLEIKRTVAAPSVFIFPPSDEQLKSGTASVVCLLNNFYPREAKVQWKVDNALQSGNSQESVTEQDSKDSTYSLSSTLTLSKADYEKHKVYACEVTHQGLSSPVTKSFNRGEC | 0.24 | 0.083 | 62 | 0.2 | ~0.2 | 0.3 | ~0.2 | 0.1 | 69 | 0.19 | 80 | 0.075 | 55 | Kd [13]: 0.00998 nM; EC50 [14]: 0.3 nM; Kd [15]: 0.01 nM; EC50 [16]: 0.5 nM; Kd [17]: 0.00656 nM
hu39.5_IGG4.P (antibody, human IgG4 S228P, kappa, humanized variant of antibody 39 (VH3 + VL1 with I2T), IgG4 (S228P)) heavy: not shown light: DTVLTQSPASLAVSPGQRATITCRASEGVKSYMHWYQQKPGQPPKLLIYKASNLASGVPARFSGSGSGTDFTLTINPVEADDTANYYCQQSWNDPTFGQGTKLEIKRTVAAPSVFIFPPSDEQLKSGTASVVCLLNNFYPREAKVQWKVDNALQSGNSQESVTEQDSKDSTYSLSSTLTLSKADYEKHKVYACEVTHQGLSSPVTKSFNRGEC | – | 0.2 | 60 | – | – | – | – | 0.15 | 72 | – | – | 0.062 | 83 | EC50 [18]: 0.44 nM; EC50 [19]: 0.088 nM; EC50 [20]: 10 nM; Human THP-1 CD39 inhibition IC50 [21]: 0.1 nM; EC50 [22]: 3.9 nM; IC50, CD39 enzymatic inhibition on SK-MEL-5 cells, 20 uM ATP [23]: 0.14 nM; Max Inhibition (%), SK-MEL-5 cells [23]: 66%; Kd [24]: 0.121 nM

Source: patent US20250084178A1 (ARCUS BIOSCIENCES, published 2025)
